Measurements published in paper PMC6377231, “Structure of a bacterial ATP synthase” (eLife, 2019).
Each block holds one binder with its values, some of them ahead of it.

Tests used:
Test in all cases: cryo-EM structure; intact Bacillus PS3 ATP synthase in GDN, three rotational states at 3.0, 3.0 and 3.2 Å; focused refinement of the membrane-embedded region at 3.3 Å
[1] = target: T1, Bacillus PS3 ATP synthase subunit α (Bacillus PS3, UniProt P09219 1-502); conditions: both partners purified
T1 construct: ATP synthase subunit alpha of Bacillus PS3, expressed from plasmid pTR-ASDS (Suzuki et al., 2002); Three copies stand in the complex (α3β3γδε ab2c10); Residues in the model are in Supplementary file 1; also called αDP; source: E. coli strain DK8, plasmid pTR-ASDS; purified as part of the intact ATP synthase (GDN, HisTrap, Superose 6)

[2] = target: T2, Bacillus PS3 ATP synthase subunit γ (Bacillus PS3, UniProt P09222 5-286); conditions: both partners purified
T2 construct: ATP synthase subunit gamma of Bacillus PS3, expressed from plasmid pTR-ASDS (Suzuki et al., 2002); source: E. coli strain DK8, plasmid pTR-ASDS; purified as part of the intact ATP synthase (GDN, HisTrap, Superose 6)

[3] = target: the molecule itself

T2 sequence (P09222 5-286): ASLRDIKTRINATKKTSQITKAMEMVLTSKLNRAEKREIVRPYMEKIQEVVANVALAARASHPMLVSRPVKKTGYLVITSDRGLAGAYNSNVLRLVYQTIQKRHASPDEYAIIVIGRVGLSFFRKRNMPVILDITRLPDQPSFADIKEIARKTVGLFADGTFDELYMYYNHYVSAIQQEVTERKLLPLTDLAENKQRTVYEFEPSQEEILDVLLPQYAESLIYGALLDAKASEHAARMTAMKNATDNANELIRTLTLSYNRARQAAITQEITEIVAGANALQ
T1 sequence (P09219 whole entry): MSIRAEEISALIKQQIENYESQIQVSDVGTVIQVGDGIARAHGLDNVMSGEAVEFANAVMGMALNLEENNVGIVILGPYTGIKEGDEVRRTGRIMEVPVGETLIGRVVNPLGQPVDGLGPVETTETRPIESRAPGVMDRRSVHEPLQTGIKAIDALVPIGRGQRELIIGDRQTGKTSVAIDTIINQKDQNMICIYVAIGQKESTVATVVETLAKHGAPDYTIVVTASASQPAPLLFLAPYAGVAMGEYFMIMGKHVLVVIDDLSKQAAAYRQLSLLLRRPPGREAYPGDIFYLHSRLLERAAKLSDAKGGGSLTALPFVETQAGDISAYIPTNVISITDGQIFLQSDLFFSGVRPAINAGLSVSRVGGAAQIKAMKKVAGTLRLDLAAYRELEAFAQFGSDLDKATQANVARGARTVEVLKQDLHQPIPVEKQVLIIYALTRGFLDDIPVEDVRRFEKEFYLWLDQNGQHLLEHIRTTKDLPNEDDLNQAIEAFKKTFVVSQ

binding result [1]: binds
binding result [2]: binds
B1: Bacillus PS3 ATP synthase subunit ε (natural protein, UniProt P07678 1-132, looked up)
chain: MKTIHVSVVTPDGPVYEDDVEMVSVKAKSGELGILPGHIPLVAPLEISAARLKKGGKTQYIAVSGGFLEVRPDNVTILAQAAERAEDIDVLRAKARKSGRTPLQSQQDDIDFKRAELALKRAMNRLSVAEMK
notes: ATP synthase subunit epsilon of Bacillus PS3, expressed from plasmid pTR-ASDS (Suzuki et al., 2002); source: E. coli strain DK8, plasmid pTR-ASDS; purified as part of the intact ATP synthase (GDN, HisTrap, Superose 6)

B2: Bacillus PS3 ATP synthase subunit c (natural protein)
chain: MSLGVLAAAIAVGLGALGAGIGNGLIVSRTIEGIARQPELRPVLQTTMFIGVALVEALPIIGVVFSFIYLGR
notes: ATP synthase subunit c of Bacillus PS3, expressed from plasmid pTR-ASDS (Suzuki et al., 2002); Forms the ring of 10 c-subunits in the FO region; also called c-ring; c10-ring; source: E. coli strain DK8, plasmid pTR-ASDS; purified as part of the intact ATP synthase (GDN, HisTrap, Superose 6); copies: 10
stoichiometry N [3]: 10
